Assay: soluble fraction after stress (log2 fold change); higher = more stays soluble; pooled small domains, quantitative proteomics
Conditions: stress: 50 degC
How it was run: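 Quantitative proteomics served as the high-throughput read-out for pooled custom libraries of small protein domains. Each was stressed at 50°C. Aggregation propensity is expressed as the base-two log fold change in soluble protein after stress. A higher value means a larger share of the protein remains in solution.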

In order of rising “soluble fraction (log2)” value:
1. HMEIFYSARAWAKLNDLVATRTYLQHLGAIAGRIGRSEGLSPDRIPDGRDGAVNGWPLWVWDRAYAEVS  -2.89
2. HMIPLSDEETILLKLLEATETHLDALIRGSQLSAAKVSVVLMGMEMKRLVKRLPGQMYQRWD  -1.84
3. HMTVTKYGKKILEIVSSSRSHMTAEEIFDALRQTYPTVVLATVYNNLNRLWQDDLIRKVSVEGMPDRYD  -1.22
4. HMDSVAKSFLAEIERFLETAGLEPTTLGKQALGDPSFVFDLRKGRSPSTRTIGKLRVWMQQQNALS  -1.2
5. HMDSGVPEWLASALRASPVAWKNFLALPPSHQRRYVGWISSARRDETRNRRIAEAISLLVEHKRLG  -1
6. HMHGSSVEIPNIYGLPASEAVQLLDKADLRYEVIDSVYTTEVPKGAVYDLSPKAGSRVKAGRIIFLTLNA  -0.756
7. HMEAPPHEALSNREFQVLQLLSQGRSVTQIAHQLTLSANTISTYRARIFDKLGLHNPADLYAYAARHGLM  -0.676
8. HMALSETIYRLRTEHGLSQGDLAAELDVSRQSISKWETGSSVPELDKLVAMSRLFGVSLDELVLGE  -0.63
9. HMTISDTAYQAFLEQLGVGMVVEHKRFGEGVITGMPKGKIRITFEEGTKSFQARALAESGMLK  -0.59
10. HMLTRQNFHGIKLPTIHEYIDLLNSRVNANIDKTNNWQSSVSHLRTYLNSHNINAVSKESINNYIDERLN  -0.572
11. HMFPELSPEEQLIVEVLSKTNDLQVNLISVKTNIDISRLTSLLFTLEMKGVIKTFAGGMYHLL  -0.538
12. HMDRTLTYTVSIEESDLRADQFLSRRGFSSHLLTRLRKNMEHLLINGTPSRTNTHLHEGDILTVHIVEE  -0.479
13. HMNVEALIGREGRVTDKIEANGYGRVKVDGDSWKAKSANGAEIRQNTDVRILSIDSVIITVEP  -0.379
14. HMRGPTIELLIQKSALYEELDDSENALKEILKAFDRDSLNSDVLNRLVNLLLNDKQIDRAENYNQLLIEK  -0.32
15. HMPYEHQRAVGALIRRLREQQGWSQRALADWVHMDQSAVSRVETGQRSVTAEELGRFADALHVSTDALVR  -0.291
16. HMLDPIQEGKKMLNSRLSGFGITPNTRLMNKLLAAYNISSREEFYGRIGAGIEDLSTLREVLLKGT  -0.284
17. HMRQYTPEQLETAVLVLEEVRQGRRLDRALRSHPMPDGRLIAKHVLVAAYRKLVAEGTWKEDPEFLSRIRM  -0.237
18. HMQLTDSDFTRLYTYVKNSYGIDLSKKKQLISSRLTNMLIQQGYRDFTQYTDEIISGKNPEMVSAMLNRLT  -0.232
19. HMKRTFGEISPLPSGRYRARYRGPDGERYPAPVTFLSRMDAETWLSAQARKVSSGDWTPPVGVVA  -0.16
20. HMEITSSNELKKMISNLINSENKNNPISDSNIVEKLKENDFLVARRTVAKYRKLLGIKNVNQRKE  -0.112
21. HMHDLTERQREILQTLASGKMALREILSILSQPPSLRTLRDELYHLKRIGLVDTMGYGRGATWFLTQ  -0.103
22. HMEISTENESFSNGLLEHPHYTRPPVWEDLKIPAVLMSGHHGKVAEWRKQQSEALTQERRPDLWEAFG  -0.0409
23. HMGGLIEPLSARELEVLELMSLGKTNQEIARDLVVASGTIKAHAASIYRKLDAANRTEAVTHARELGIL  -0.0084
24. HMEPVQPVMYSEFIESVERGEVVEATIQGDKIIATDRSGNRYTVVGSAKDPQLVGQLLERNVAFKFVEE  0.00245
25. HMHIELNDTQKRILNFLSDDPNLSAVRLAEQLGISSRNVEKNIKKLKEYGILIRHGSPKNGYWEIVV  0.0335
26. HMSSASETQYELALQAMRDGDNDAALRSLSTALASGFSDWQRIDEEPLLAALANDVRFQVLRSRWK  0.0414
27. HMPEKKKYGDFVSMTEEEYGKLVSEYGQEAAKRMVEILNNYKGATGKPYKSDYLAILNWVVKRIKEE  0.0441
28. HMGEIILVPDVKAQGVSDARYTLNQAGLDAVIADSSYNRNSPPGAVLEQMPAPGSKVKSGHAIYLIINTT  0.053
29. HMGHEEPITFDRLPQAAQTFLKTHFDTLTVAYIVADRKFMGVEYEVKYTDRTEVDFRSDGQWESV  0.0592
30. HMDSISEQIYSIIKEEILLAKRKPGEQINPRKLADEFETSVMPIRDALNQLANEGLVIRKPRVGFFVR  0.0655
31. HMDTQITPNKAKEIALAHAGVTEAAANFKKIKLDNKNGKSIYEIEFIANKSRYEFIVDAKNGSIIKFEK  0.0656
32. HMKPTGWVRGDMGVVDKGQLSITQGTVNVRSGPGLSYEILDQVRRGDRFPVIKSQSGWHNISM  0.0818
33. HMPGTPADQVAELQTKVGTETKTGDMITQDDVKLLQTALDPLAKMNDRIQAAKILESKGIVTSDGNLRT  0.124
34. HMGLDPVFKKWVDDNPWYTENRVLRALTHDYAEELKQTNPQLVGVEFLDQVKKRVQADHPEFFQ  0.141
35. HMLQLSDAISRVESFLQGQNRNLAFSIDENTERSVVTVLDSDTGDVIRQIPSEELLVLAKRIQELQQD  0.151
36. HMDTGKLQSLVGSRGVAHTVLRPSGKVMIGDDVYPAVAETGFIPRGTAIVVRREEQGQLYVVEARK  0.179
37. HMAPFSGVEPREWDSLVERGRQSGEVHAEDVTHVLRHVELTGDVLTDVQSKMAEHGITIDDA  0.206
38. HMNLFNEIEKQYQALQDRSSASLVDLRHLLLDIEELVNSPDYQALAPDQRSTLQAARKELMRRIQKQEN  0.213

— the domain aggregation screens of Martell et al. (2025)
